Target: endogenous DNMT1 (human (endogenous in HeLa, HEK293, …, UniProt P26358 1-1616))
Assay: cell-based or functional assay

endogenous DNMT1 (human, sequence (P26358 whole entry): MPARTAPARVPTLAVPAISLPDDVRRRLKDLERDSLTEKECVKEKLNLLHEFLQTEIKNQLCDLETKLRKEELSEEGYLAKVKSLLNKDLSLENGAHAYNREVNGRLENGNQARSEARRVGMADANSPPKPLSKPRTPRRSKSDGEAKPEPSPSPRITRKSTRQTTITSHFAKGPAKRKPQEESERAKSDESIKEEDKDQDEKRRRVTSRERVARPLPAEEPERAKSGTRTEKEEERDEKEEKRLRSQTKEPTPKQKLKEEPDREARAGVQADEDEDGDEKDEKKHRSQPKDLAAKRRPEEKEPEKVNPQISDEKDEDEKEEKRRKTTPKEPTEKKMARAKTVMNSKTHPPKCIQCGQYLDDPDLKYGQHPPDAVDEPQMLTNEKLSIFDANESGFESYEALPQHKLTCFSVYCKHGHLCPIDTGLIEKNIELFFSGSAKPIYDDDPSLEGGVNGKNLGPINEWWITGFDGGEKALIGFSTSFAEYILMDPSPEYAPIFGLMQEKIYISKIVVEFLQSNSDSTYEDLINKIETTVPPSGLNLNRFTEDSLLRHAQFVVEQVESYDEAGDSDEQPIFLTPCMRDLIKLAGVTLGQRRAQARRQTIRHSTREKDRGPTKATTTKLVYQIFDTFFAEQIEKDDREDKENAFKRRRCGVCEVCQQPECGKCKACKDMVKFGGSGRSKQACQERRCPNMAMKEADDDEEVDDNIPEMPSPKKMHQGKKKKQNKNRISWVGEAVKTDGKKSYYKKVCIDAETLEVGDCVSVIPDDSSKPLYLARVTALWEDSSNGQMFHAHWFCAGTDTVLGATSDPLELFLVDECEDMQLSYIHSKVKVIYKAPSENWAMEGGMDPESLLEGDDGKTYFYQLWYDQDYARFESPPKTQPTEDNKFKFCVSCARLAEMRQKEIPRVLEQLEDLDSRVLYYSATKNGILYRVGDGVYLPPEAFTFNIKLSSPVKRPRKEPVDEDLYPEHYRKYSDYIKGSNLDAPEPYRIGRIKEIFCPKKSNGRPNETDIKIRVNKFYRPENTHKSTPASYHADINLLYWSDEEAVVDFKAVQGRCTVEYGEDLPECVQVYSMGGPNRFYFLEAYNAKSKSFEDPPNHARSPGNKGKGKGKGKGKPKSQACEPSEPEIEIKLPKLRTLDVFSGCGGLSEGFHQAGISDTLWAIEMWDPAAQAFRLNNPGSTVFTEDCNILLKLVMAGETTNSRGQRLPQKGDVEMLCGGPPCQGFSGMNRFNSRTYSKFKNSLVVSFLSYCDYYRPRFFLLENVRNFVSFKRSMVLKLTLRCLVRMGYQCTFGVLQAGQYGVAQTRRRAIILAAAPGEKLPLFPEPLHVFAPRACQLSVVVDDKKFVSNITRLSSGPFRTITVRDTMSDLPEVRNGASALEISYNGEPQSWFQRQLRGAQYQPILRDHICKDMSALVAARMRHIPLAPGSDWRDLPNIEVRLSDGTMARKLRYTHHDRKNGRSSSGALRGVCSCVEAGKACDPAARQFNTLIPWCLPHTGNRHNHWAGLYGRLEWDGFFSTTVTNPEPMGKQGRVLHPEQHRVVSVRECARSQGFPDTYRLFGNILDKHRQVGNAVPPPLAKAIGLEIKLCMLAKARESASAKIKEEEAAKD

B1: endogenous PHF20L1a (natural protein, UniProt A8MW92 1-1017, looked up)
chain: MSKKPPNRPGITFEIGARLEALDYLQKWYPSRIEKIDYEEGKMLVHFERWSHRYDEWIYWDSNRLRPLERPALRKEGLKDEEDFFDFKAGEEVLARWTDCRYYPAKIEAINKEGTFTVQFYDGVIRCLKRMHIKAMPEDAKGQVKSQHPLSWCCPIDPAGSCNQSMGSEDWIALVKAAAAAAAKNKTGSKPRTSANSNKDKDKDERKWFKVPSKKEETSTCIATPDVEKKEDLPTSSETFGLHVENVPKMVFPQPESTLSNKRKNNQGNSFQAKRARLNKITGLLASKAVGVDGAEKKEDYNETAPMLEQAISPKPQSQKKNEADISSSANTQKPALLSSTLSSGKARSKKCKHESGDSSGCIKPPKSPLSPELIQVEDLTLVSQLSSSVINKTSPPQPVNPPRPFKHSERRRRSQRLATLPMPDDSVEKVSSPSPATDGKVFSISSQNQQESSVPEVPDVAHLPLEKLGPCLPLDLSRGSEVTAPVASDSSYRNECPRAEKEDTQMLPNPSSKAIADGRGAPAAAGISKTEKKVKLEDKSSTAFGKRKEKDKERREKRDKDHYRPKQKKKKKKKKKSKQHDYSDYEDSSLEFLERCSSPLTRSSGSSLASRSMFTEKTTTYQYPRAILSVDLSGENLSDVDFLDDSSTESLLLSGDEYNQDFDSTNFEESQDEDDALNEIVRCICEMDEENGFMIQCEECLCWQHSVCMGLLEESIPEQYICYICRDPPGQRWSAKYRYDKEWLNNGRMCGLSFFKENYSHLNAKKIVSTHHLLADVYGVTEVLHGLQLKIGILKNKHHPDLHLWACSGKRKDQDQIIAGVEKKIAQDTVNREEKKYVQNHKEPPRLPLKMEGTYITSEHSYQKPQSFGQDCKSLADPGSSDDDDVSSLEEEQEFHMRSKNSLQYSAKEHGMPEKNPAEGNTVFVYNDKKGTEDPGDSHLQWQLNLLTHIENVQNEVTSRMDLIEKEVDVLESWLDFTGELEPPDPLARLPQLKRHIKQLLIDMGKVQQIATLCSV
half-life of DNMT1 in HeLa cells with cycloheximide, 60 uM UNC1215 (MBT domain inhibitor) against ethanol: ~50%

— publication PMC3961655, “Methyllysine Reader Plant Homeodomain (PHD) Finger Protein 20-like 1 (PHF20L1) Antagonizes DNA (Cytosine-5) Methyltransferase 1 (DNMT1) Proteasomal Degradation*” (The Journal of Biological Chemistry, 2014)
